For assay [1], the target named is GST-cortactin SH3 domain (mouse) (UniProt Q60598).
The target in assay [2] is GST-Cdc42 interacting protein 4 (CIP4) SH3 domain (human) (UniProt Q15642).
Assay [3] concerns the target GST-intersectin I SH3A domain (Xenopus laevis).
Assay [4] concerns the target GST-p85 SH3 domain (bovine) (UniProt P23727).
For assay [5], the target named is GST-Formin Binding Protein 17 (FBP17) SH3 domain (human) (UniProt Q96RU3).
Assay [6] addresses GST-sorting-nexin 9 (SNX9) SH3 domain (human) (UniProt Q9Y5X1).
The target in assay [7] is GST-endophilin I SH3 domain (mouse) (UniProt Q62420).
Assay [8] concerns the target GST-amphiphysin I SH3 domain (human) (UniProt P49418).
The target of assay [9] is GST-syndapin I SH3 domain (mouse) (UniProt Q61644).
Assay [10] concerns the target GST-intersectin I SH3C domain (Xenopus laevis).
For assay [11], the target named is GST-Actin binding protein 1 (Abp1) SH3 domain (mouse) (UniProt Q62418).
Assay [12] has as its target GST-intersectin I SH3E domain (Xenopus laevis).
Assay [13] deals with GST-amphiphysin II SH3 domain (human) (UniProt O00499).
Assay [14] addresses GST-cortactin SH3 domain (mouse) (UniProt Q60598). The source holds these as a separate data set.
The target in assay [15] is GST-Cdc42 interacting protein 4 (CIP4) SH3 domain (human) (UniProt Q15642). The source holds these as a separate data set.
In assay [16] the target is GST-p85 SH3 domain (bovine) (UniProt P23727). The source holds these as a separate data set.
For assay [17], the target named is GST-Formin Binding Protein 17 (FBP17) SH3 domain (human) (UniProt Q96RU3). This is another data set of the same source.
Assay [18] deals with GST-endophilin I SH3 domain (mouse) (UniProt Q62420). The source holds these as a separate data set.
Assay [19] has as its target GST-amphiphysin I SH3 domain (human) (UniProt P49418). The source holds these as a separate data set.
The target in assay [20] is GST-syndapin I SH3 domain (mouse) (UniProt Q61644). This is another data set of the same source.
Assay [21] deals with GST-intersectin I SH3C domain (Xenopus laevis). The source holds these as a separate data set.
The target of assay [22] is GST-Actin binding protein 1 (Abp1) SH3 domain (mouse) (UniProt Q62418). This is another data set of the same source.
Assay [23] concerns the target GST-intersectin I SH3E domain (Xenopus laevis). The source holds these as a separate data set.
Assay [24] addresses GST-amphiphysin II SH3 domain (human) (UniProt O00499). The source holds these as a separate data set.

GST-amphiphysin II SH3 domain (human), sequence (O00499 520-593): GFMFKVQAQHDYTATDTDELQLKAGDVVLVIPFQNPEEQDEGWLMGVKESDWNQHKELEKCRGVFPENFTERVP
GST-Actin binding protein 1 (Abp1) SH3 domain (mouse), sequence (Q62418 377-436): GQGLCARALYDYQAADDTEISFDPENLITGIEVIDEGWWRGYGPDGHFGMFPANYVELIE
GST-syndapin I SH3 domain (mouse), sequence (Q61644 382-441): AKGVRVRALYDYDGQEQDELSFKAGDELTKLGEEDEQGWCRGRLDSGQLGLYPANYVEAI
GST-endophilin I SH3 domain (mouse), sequence (Q62420 290-349): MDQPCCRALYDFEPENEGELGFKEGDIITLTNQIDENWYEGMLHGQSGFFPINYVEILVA
GST-Formin Binding Protein 17 (FBP17) SH3 domain (human), sequence (Q96RU3 550-611): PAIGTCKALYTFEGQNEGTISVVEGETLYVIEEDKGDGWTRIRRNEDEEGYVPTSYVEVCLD
GST-Cdc42 interacting protein 4 (CIP4) SH3 domain (human), sequence (Q15642 540-601): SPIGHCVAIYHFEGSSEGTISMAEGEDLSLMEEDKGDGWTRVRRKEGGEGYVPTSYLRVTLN
GST-amphiphysin I SH3 domain (human), sequence (P49418 622-695): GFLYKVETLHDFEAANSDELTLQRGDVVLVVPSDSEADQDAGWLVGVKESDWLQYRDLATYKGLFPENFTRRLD
GST-cortactin SH3 domain (mouse), sequence (Q60598 488-546): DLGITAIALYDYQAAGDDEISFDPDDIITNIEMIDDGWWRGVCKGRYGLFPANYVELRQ
GST-sorting-nexin 9 (SNX9) SH3 domain (human), sequence (Q9Y5X1 1-62): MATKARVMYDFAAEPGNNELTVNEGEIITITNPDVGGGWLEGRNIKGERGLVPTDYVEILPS

For “recombinant human dynamin I middle domain splice variant Ibb (enzyme)”, the rate of dynamin GTPase activity stimulated by the GST-SH3 domain (ELIPA, 30 mM NaCl, basal rate subtracted) (μmoles Pi/mg of dyn/min) is 0.102 in assay [1]; 0.019 in [2]; 0.075 in assay [3]; 0.02 in assay [4]; 0.098 in assay [5]; 0.041 in assay [6]. Also, the rate of dynamin GTPase activity stimulated by the GST-SH3 domain (ELIPA, 30 mM NaCl, basal rate subtracted) (μmoles Pi/mg of dyn/min) in assay [7] is 0.016; in [8], 0.056; in assay [9] it was 0.068; in [10], 0.017; in assay [11], 0.011; in assay [12] it was 0.036. This substance displayed a rate of dynamin GTPase activity stimulated by the GST-SH3 domain (ELIPA, 30 mM NaCl, basal rate subtracted) (μmoles Pi/mg of dyn/min) in [13] of 0.013. Besides, the dynamin GTPase activity stimulated by the GST-SH3 domain (ELIPA, 150 mM NaCl) (μmoles Pi/mg of dynamin) in [14], in assay [15], in assay [16], in [17], in assay [18] and in [19] was under 0.03 throughout. Also, the dynamin GTPase activity stimulated by the GST-SH3 domain (ELIPA, 150 mM NaCl) (μmoles Pi/mg of dynamin) in assay [20], in [21], in assay [22], in assay [23] and in assay [24] was under 0.03 throughout.

Consider “recombinant human dynamin I middle domain splice variant Iab (enzyme)”, for which the rate of dynamin GTPase activity stimulated by the GST-SH3 domain (ELIPA, 30 mM NaCl, basal rate subtracted) (μmoles Pi/mg of dyn/min) in assay [1] was found to be 0.03; in assay [2] it was 0; in assay [3], 0.026; in assay [4] it was 0.014; in assay [5] it was 0.084; in [6] it was 0.03. Also, the rate of dynamin GTPase activity stimulated by the GST-SH3 domain (ELIPA, 30 mM NaCl, basal rate subtracted) (μmoles Pi/mg of dyn/min) turned out to be 0.032 in [7]; 0.032 in assay [8]; 0.026 in [9]; 0 in assay [10]; 0.011 in assay [11]; 0.023 in assay [12]. The substance further displayed a rate of dynamin GTPase activity stimulated by the GST-SH3 domain (ELIPA, 30 mM NaCl, basal rate subtracted) (μmoles Pi/mg of dyn/min) in [13] of 0.01. Further, the dynamin GTPase activity stimulated by the GST-SH3 domain (ELIPA, 150 mM NaCl) (μmoles Pi/mg of dynamin) in [14], in assay [15], in assay [16], in assay [17], in [18] and in assay [19] was under 0.03 in each case. Moreover, the dynamin GTPase activity stimulated by the GST-SH3 domain (ELIPA, 150 mM NaCl) (μmoles Pi/mg of dynamin) in assay [20], in assay [21], in assay [22], in assay [23] and in [24] was under 0.03 throughout.

Values taken from article PMC4687643.
